Laboratory results from the supplement of paper PMC6757056.
± gives the standard deviation of the averaged measurements.

B1: library; a variant is named by its letters at N, in order (parent)
chain: GCUGUCACCGAGAAACUGUGAAGUAUAUCUUAAACCUGGGCACUUAAAAGAUAUAUGGAGUUAGUAGUGCAACCUGCUCGGUCUGAUGAGUCCNNNNNNGGACGAAACAGC

Key:
[1] = variants of: B1; assay: FACS-Seq fitted mean relative fluorescence mCherry/BFP without ligand (log10 relative fluorescence); HEK293T; ligand: cyclic di-GMP (c-di-GMP-II aptamer); higher = higher reporter protein expression; details: ligand present: no
Summary of the method: (§1)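 Cells were sorted into 6 bins on the mCherry/BFP ratio after 48 h with or without ligand. These were enriched HEK293T cells transduced by lentivirus with a ribozyme-switch mCherry reporter plus an EF1α-BFP marker. Fluorescence was obtained by fitting a normal distribution to sequencing-derived bin counts. Counts came from MiSeq sequencing of PCR-amplified, barcoded genomic DNA, binned by log10(mCherry/BFP), with means scaled to five spiked-in control ribozymes.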

[2] = variants of: B1; assay: normalized RNA/DNA level without ligand (relative to sTRSVctl = 100) (log10 (% of sTRSVctl)); HEK293T; ligand: cyclic di-GMP (c-di-GMP-II aptamer); higher = less ribozyme self-cleavage, higher mRNA level; details: reporter: mCherry (pCS4076), ligand present: no
Method: (§2)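 Hammerhead (sTRSV) ribozyme switch libraries with a ligand aptamer grafted on stem I and a randomized N4-6 loop II, cloned into the 3' UTR of mCherry and transiently transfected into HEK293T cells; RNA-Seq 72 h post transfection with ligand added 1 h before transfection; RNA read count / plasmid DNA read count normalized to the non-cleaving sTRSVctl (x100), log10; sequences with >100 DNA reads. FACS-Seq: lentiviral library sorted into 6 bins after 48 h ligand, log-normal fit mean of mCherry/BFP scaled to controls. Printed sequences are partial switch sequences.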

[3] = variants of: B1; assay: FACS-Seq fitted mean relative fluorescence mCherry/BFP with ligand (log10 relative fluorescence); HEK293T; ligand: cyclic di-GMP (c-di-GMP-II aptamer); ligand concentration (+) FACS-Seq: 1 mM; higher = higher reporter protein expression; details: ligand present: yes
Summary of the method: as §1

[4] = variants of: B1; assay: normalized RNA/DNA level with ligand (relative to sTRSVctl = 100) (log10 (% of sTRSVctl)); HEK293T; ligand: cyclic di-GMP (c-di-GMP-II aptamer); ligand concentration (+) RNA-Seq: 1 mM; higher = less ribozyme self-cleavage, higher mRNA level; details: reporter: mCherry (pCS4076), ligand present: yes
Method: as §2

Row | Variant | FACS-Seq fitted mean (log10) [1] | normalized RNA/DNA level without ligand (log10) [2] | FACS-Seq fitted mean (log10) [3] | normalized RNA/DNA level with ligand (log10) [4]
1 | CUGAGU | -0.459 ± 0.047 | 1.7 ± 0.022 | -0.264 ± 0.00087 | 1.83 ± 0.12
2 | CCUACC | -0.57 ± 0.25 | 1.757 ± 0.0078 | -0.577 ± 0.048 | 1.85 ± 0.053
3 | CAUAUA | -0.483 ± 0.05 | 1.3 ± 0.14 | -0.237 ± 0.014 | 1.51 ± 0.097
4 | ACGUAA | -0.0329 ± 0.12 | 1.43 ± 0.079 | 0.314 ± 0.082 | 1.63 ± 0.087
5 | AUACAA | -0.183 ± 0.011 | 1.54 ± 0.048 | 0.0162 ± 0.13 | 1.73 ± 0.099
6 | AUACAU | -0.192 ± 0.015 | 1.62 ± 0.062 | 0.241 ± 0.0042 | 1.78 ± 0.074
7 | AACCAU | -0.0934 ± 0.098 | 1.6 ± 0.025 | 0.0926 ± 0.016 | 1.76 ± 0.15
8 | AUAAUA | -0.503 ± 0.0074 | 1.58 ± 0.0077 | -0.158 ± 0.15 | 1.75 ± 0.092
9 | AAUUGG | 0.0192 ± 0.091 | 1.59 ± 0.068 | 0.141 ± 0.0084 | 1.74 ± 0.13
10 | GAGAGA | -0.796 ± 0.023 | 1.61 ± 0.037 | -0.733 ± 0.053 | 1.72 ± 0.086
11 | UGAUUU | 0.198 ± 0.26 | 1.69 ± 0.047 | 0.343 ± 0.1 | 1.86 ± 0.16
12 | CAGAAA | -0.664 ± 0.055 | 1.15 ± 0.12 | -0.562 ± 0.02 | 1.28 ± 0.14
13 | AUAAAG | -0.485 ± 0.024 | 1.56 ± 0.038 | -0.249 ± 0.071 | 1.73 ± 0.14
14 | GCCAGG | -0.568 ± 0.068 | 1.75 ± 0.071 | -0.429 ± 0.034 | 1.84 ± 0.087
15 | AAUGUG | 0.000386 ± 0.089 | 1.58 ± 0.051 | 0.206 ± 0.026 | 1.76 ± 0.09
16 | CCUUUA | -0.242 ± 0.11 | 1.38 ± 0.062 | 0.149 ± 0.0049 | 1.64 ± 0.1
17 | CGUCCU | -0.313 ± 0.09 | 1.6 ± 0.033 | 0.0379 ± 0.021 | 1.78 ± 0.12
18 | GUGAUG | -0.401 ± 0.17 | 1.54 ± 0.09 | -0.137 ± 0.01 | 1.73 ± 0.068
19 | GCGAUA | -0.474 ± 0.0058 | 1.44 ± 0.11 | -0.154 ± 0.057 | 1.61 ± 0.12
20 | UAGUCC | 0.148 ± 0.14 | 1.72 ± 0.1 | 0.203 ± 0.041 | 1.85 ± 0.086
21 | GCGUCG | -0.555 ± 0.037 | 1.64 ± 0.037 | -0.312 ± 0.016 | 1.77 ± 0.11
22 | GACUUG | -0.257 ± 0.031 | 1.63 ± 0.023 | -0.0923 ± 0.026 | 1.79 ± 0.12
23 | UAACGA | -0.0411 ± 0.064 | 1.59 ± 0.026 | 0.272 ± 0.15 | 1.76 ± 0.089
24 | GCUUCU | -0.15612 ± 8.5e-05 | 1.74 ± 0.019 | 0.0598 ± 0.018 | 1.87 ± 0.11

Row | Variant | FACS-Seq fitted mean (log10) [1] | normalized RNA/DNA level without ligand (log10) [2] | FACS-Seq fitted mean (log10) [3] | normalized RNA/DNA level with ligand (log10) [4]
25 | UAGACU | -0.164 ± 0.073 | 1.68 ± 0.051 | 0.141 ± 0.12 | 1.85 ± 0.13
26 | UCAGUA | -0.6 ± 0.076 | 1.33 ± 0.2 | -0.299 ± 0.076 | 1.59 ± 0.082
27 | UCGUAC | 0.087 ± 0.015 | 1.653 ± 0.01 | 0.277 ± 0.023 | 1.81 ± 0.14
28 | CUCGCU | -0.0213 ± 0.09 | 1.8 ± 0.047 | 0.226 ± 0.12 | 1.9 ± 0.079
29 | UCAGCG | -0.403 ± 0.12 | 1.83 ± 0.077 | -0.141 ± 0.05 | 1.88 ± 0.099
30 | CCCCCA | -0.0821 ± 0.078 | 1.71 ± 0.046 | 0.187 ± 0.091 | 1.83 ± 0.14
31 | ACUUUA | -1.11 ± 0.037 | 1.59 ± 0.044 | -0.989 ± 0.12 | 1.76 ± 0.067
32 | CGACAA | -0.57 ± 0.068 | 1.29 ± 0.15 | -0.273 ± 0.0065 | 1.54 ± 0.097
33 | GCCACC | -0.0159 ± 0.27 | 1.682 ± 0.011 | 0.0347 ± 0.1 | 1.84 ± 0.095
34 | AGUAGA | -0.549 ± 0.05 | 1.36 ± 0.12 | -0.22 ± 0.075 | 1.56 ± 0.086
35 | GUGCAU | -0.575 ± 0.042 | 1.73 ± 0.028 | -0.302 ± 0.062 | 1.85 ± 0.18
36 | AGUGCA | -0.382 ± 0.034 | 1.61 ± 0.046 | -0.043 ± 0.018 | 1.79 ± 0.096
37 | UCGAGA | -0.546 ± 0.018 | 1.47 ± 0.0053 | -0.217 ± 0.11 | 1.71 ± 0.16
38 | GUGCCG | -0.423 ± 0.023 | 1.828 ± 0.017 | -0.15 ± 0.011 | 1.92 ± 0.11
39 | GCUUAA | -0.0927 ± 0.12 | 1.56 ± 0.088 | 0.338 ± 0.039 | 1.7 ± 0.072
40 | UGUACC | 0.263 ± 0.21 | 1.79 ± 0.068 | 0.4414 ± 0.00076 | 1.9 ± 0.13
41 | AGAUUA | -0.549 ± 0.084 | 1.49 ± 0.078 | -0.245 ± 0.019 | 1.69 ± 0.15
42 | AGAGAA | -0.335 ± 0.073 | 1.33 ± 0.12 | -0.0362 ± 0.068 | 1.54 ± 0.1
43 | UGGGAA | -0.259 ± 0.11 | 1.57 ± 0.12 | -0.113 ± 0.048 | 1.77 ± 0.089
44 | CAAUGU | 0.349 ± 0.071 | 1.75 ± 0.019 | 0.4491 ± 0.001 | 1.87 ± 0.11
45 | UAAUUU | -0.1701 ± 0.00076 | 1.688 ± 0.0068 | -0.0196 ± 0.026 | 1.87 ± 0.11
46 | CGCGUA | -0.52 ± 0.06 | 1.45 ± 0.16 | -0.224 ± 0.062 | 1.638 ± 0.011
47 | GCACUU | -0.492 ± 0.071 | 1.588 ± 0.015 | -0.235 ± 0.081 | 1.8 ± 0.063
48 | ACUGGA | -0.72 ± 0.0076 | 1.39 ± 0.091 | -0.5113 ± 0.0047 | 1.59 ± 0.087

Row | Variant | FACS-Seq fitted mean (log10) [1] | normalized RNA/DNA level without ligand (log10) [2] | FACS-Seq fitted mean (log10) [3] | normalized RNA/DNA level with ligand (log10) [4]
49 | CGUUCC | -0.821 ± 0.086 | 1.735 ± 0.0027 | -0.407 ± 0.1 | 1.87 ± 0.13
50 | AGGAAG | -0.88 ± 0.017 | 1.38 ± 0.13 | -0.6586 ± 0.0033 | 1.52 ± 0.13
51 | AAGCAC | -0.391 ± 0.077 | 1.678 ± 0.0034 | -0.0705 ± 0.025 | 1.82 ± 0.11
52 | AUUCGG | -0.4 ± 0.23 | 1.7 ± 0.019 | 0.0339 ± 0.063 | 1.82 ± 0.2
53 | AGCAGA | -0.373 ± 0.045 | 1.564 ± 0.0029 | -0.1 ± 0.017 | 1.69 ± 0.19
54 | CCAAGU | -0.377 ± 0.06 | 1.663 ± 0.013 | 0.0295 ± 0.007 | 1.82 ± 0.099
55 | AAUGGA | -0.46 ± 0.012 | 1.36 ± 0.11 | -0.114 ± 0.0052 | 1.55 ± 0.066
56 | UAGGCU | -0.161 ± 0.14 | 1.75 ± 0.031 | 0.0436 ± 0.011 | 1.88 ± 0.11
57 | ACGGUU | -0.529 ± 0.031 | 1.22 ± 0.074 | -0.237 ± 0.11 | 1.4 ± 0.1
58 | CGGAAA | -0.619 ± 0.028 | 1.16 ± 0.075 | -0.44 ± 0.058 | 1.28 ± 0.09
59 | UGGACU | -0.517 ± 0.12 | 1.69 ± 0.076 | -0.118 ± 0.075 | 1.86 ± 0.045
60 | CGAACA | -0.456 ± 0.075 | 1.58 ± 0.045 | -0.276 ± 0.0035 | 1.7 ± 0.074
61 | GCAUGU | -0.424 ± 0.036 | 1.49 ± 0.073 | -0.147 ± 0.022 | 1.69 ± 0.072
62 | AUGCCA | -0.283 ± 0.032 | 1.704 ± 0.0062 | 0.176 ± 0.089 | 1.84 ± 0.08
63 | CAUCGA | -0.063 ± 0.043 | 1.64 ± 0.057 | 0.144 ± 0.0063 | 1.78 ± 0.07
64 | UCAAUA | -0.525 ± 0.048 | 1.4 ± 0.085 | -0.157 ± 0.078 | 1.63 ± 0.089
65 | UAUGGU | -0.169 ± 0.095 | 1.569 ± 0.014 | 0.0872 ± 0.053 | 1.76 ± 0.11
66 | GAAAUA | 0.098 ± 0.25 | 1.47 ± 0.079 | 0.291 ± 0.031 | 1.65 ± 0.12
67 | GUGGAA | -0.382 ± 0.021 | 1.4 ± 0.087 | -0.0891 ± 0.076 | 1.63 ± 0.092
68 | AAACAA | -0.921 ± 0.12 | 1.44 ± 0.051 | -0.77 ± 0.014 | 1.62 ± 0.1
69 | GAAAGU | -0.387 ± 0.03 | 1.55 ± 0.044 | -0.0693 ± 0.089 | 1.71 ± 0.095
70 | AGAAGG | -0.204 ± 0.074 | 1.5 ± 0.072 | 0.0586 ± 0.061 | 1.69 ± 0.064
71 | CGAGAU | -0.412 ± 0.057 | 1.52 ± 0.064 | -0.0533 ± 0.042 | 1.76 ± 0.11
72 | AUUGCC | -0.0783 ± 0.14 | 1.776 ± 0.0015 | 0.207 ± 0.0046 | 1.92 ± 0.12
